According to patent US20180140737A1, “HAEMOSTATIC MATERIAL” (HAEMOSTATIX LIMITED, priority 2015, published 2018):

Columns and labels:
fibrinogen [1] = target: T1, fibrinogen (Homo sapiens, UniProt P02675+P02679); details: cited from earlier work
T1 sequence (P02679 27-453): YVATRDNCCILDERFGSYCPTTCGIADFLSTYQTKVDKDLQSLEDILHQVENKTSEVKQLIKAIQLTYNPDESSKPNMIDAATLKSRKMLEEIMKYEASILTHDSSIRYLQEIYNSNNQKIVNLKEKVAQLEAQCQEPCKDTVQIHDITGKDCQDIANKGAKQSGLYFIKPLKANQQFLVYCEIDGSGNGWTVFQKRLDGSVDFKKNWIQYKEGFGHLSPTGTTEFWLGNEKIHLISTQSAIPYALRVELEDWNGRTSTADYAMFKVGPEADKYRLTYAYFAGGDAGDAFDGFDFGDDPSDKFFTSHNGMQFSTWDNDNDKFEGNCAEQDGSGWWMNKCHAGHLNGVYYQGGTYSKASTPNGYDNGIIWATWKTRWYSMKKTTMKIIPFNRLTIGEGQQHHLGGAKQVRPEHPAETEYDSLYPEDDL
T1 sequence (P02675 31-491): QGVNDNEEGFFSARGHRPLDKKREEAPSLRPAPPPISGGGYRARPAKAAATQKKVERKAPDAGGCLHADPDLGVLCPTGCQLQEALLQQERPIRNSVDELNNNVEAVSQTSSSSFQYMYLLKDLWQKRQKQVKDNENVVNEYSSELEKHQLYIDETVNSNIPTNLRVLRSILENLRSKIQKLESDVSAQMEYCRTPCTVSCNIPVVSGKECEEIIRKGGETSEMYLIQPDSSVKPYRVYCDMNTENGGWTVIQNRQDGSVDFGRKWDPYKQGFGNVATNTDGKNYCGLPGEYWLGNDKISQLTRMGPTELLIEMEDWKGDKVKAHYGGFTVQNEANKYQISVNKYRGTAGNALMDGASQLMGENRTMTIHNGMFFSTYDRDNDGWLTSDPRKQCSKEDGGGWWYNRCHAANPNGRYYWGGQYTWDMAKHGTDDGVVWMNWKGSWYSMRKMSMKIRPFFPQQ
T1 sequence (P02671 20-629 partner limits assumed): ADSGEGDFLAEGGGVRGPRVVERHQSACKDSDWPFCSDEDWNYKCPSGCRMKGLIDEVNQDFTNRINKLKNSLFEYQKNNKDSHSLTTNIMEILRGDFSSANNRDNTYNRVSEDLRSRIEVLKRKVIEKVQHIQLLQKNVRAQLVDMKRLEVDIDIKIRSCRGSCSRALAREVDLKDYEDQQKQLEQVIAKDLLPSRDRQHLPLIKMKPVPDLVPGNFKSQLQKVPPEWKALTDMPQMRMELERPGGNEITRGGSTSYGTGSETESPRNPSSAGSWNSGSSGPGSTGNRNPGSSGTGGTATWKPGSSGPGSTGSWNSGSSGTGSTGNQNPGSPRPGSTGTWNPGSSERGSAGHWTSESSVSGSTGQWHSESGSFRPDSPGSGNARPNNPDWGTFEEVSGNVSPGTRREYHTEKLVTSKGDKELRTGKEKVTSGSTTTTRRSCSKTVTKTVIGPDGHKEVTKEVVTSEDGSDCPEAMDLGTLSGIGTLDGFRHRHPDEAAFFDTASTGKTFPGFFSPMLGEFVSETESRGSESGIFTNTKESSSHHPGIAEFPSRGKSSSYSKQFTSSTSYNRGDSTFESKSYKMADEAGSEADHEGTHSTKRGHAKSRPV

[2] = target: T2, purified human fibrinogen (Homo sapiens, UniProt P02675+P02679); experiment: Co-polymerisation with purified human fibrinogen, clotting time (Sigma Amelung KC4 Delta coagulation analyser); type: biochemical
T2 sequence (P02679 27-453): T1 sequence (P02679 27-453)
T2 sequence (P02675 31-491): T1 sequence (P02675 31-491)
T2 sequence (P02671 20-629 partner limits assumed): T1 sequence (P02671 20-629 partner limits assumed)
Experimental: The ability of Peptide Dendrimer No. 12 to polymerise fibrinogen was assessed. 30 μl of dendrimer in solution, at concentration ranging from 0.005-2 mg/ml, was added to 100 μl purified human fibrinogen at 3 mg/ml (the level of fibrinogen found in the blood). Polymerisation of fibrinogen was analysed using a Sigma Amelung KC4 Delta coagulation analyser.
The ability of Peptide Dendrimer Nos. 4, 5, 10, 11, and 12 to copolymerise with fibrinogen was assessed using the same method described in Example 11. The concentration of each dendrimer was varied from 0.005-0.5 mg/ml.
The ability of the dendrimers to copolymerise with fibrinogen was assessed using the same method described in Example 11, for a concentration of each dendrimer ranging from 0.005-0.5mg/ml.
The ability of the dendrimers to copolymerise with fibrinogen was assessed using the same method described in Example 11, for a concentration of each dendrimer ranging from 0.005-0.5 mg/ml.
Peptide Conjugate No. 1 or 2 (2 mg/ml) was mixed with Peptide Dendrimer No. 3 or 4, and fibrinogen, and the ability of the mixtures to copolymerise with fibrinogen was assessed using the same method described in Example 11, for a concentration of each dendrimer ranging from 0.025-0.5 mg/ml.

[3] = target: T3, fibrinogen in human plasma (Homo sapiens, UniProt P02675+P02679); experiment: Polymerisation of fibrinogen in human plasma (KC4 Delta coagulation analyzer); type: biochemical; details: 30 μL dendrimer 0.25 mg/ml added to 100 μL human plasma, 37° C
T3 construct: from tissue; host or cells: human plasma
T3 sequence (P02679 27-453): T1 sequence (P02679 27-453)
T3 sequence (P02675 31-491): T1 sequence (P02675 31-491)
T3 sequence (P02671 20-629 partner limits assumed): T1 sequence (P02671 20-629 partner limits assumed)
Experimental: The ability of several different peptide dendrimers (Nos. 4, 5, 8, 9, 10, 11, 12, 13) to polymerise fibrinogen in human plasma was tested.
30 μL of each dendrimer (at a concentration of 0.25 mg/ml) was added to 100 μL human plasma at 37° C., and polymerisation of fibrinogen was determined using a Sigma Amelung KC4 Delta coagulation analyzer.

fibrinogen [4] = target: T1, fibrinogen; experiment: Clotting activity of dendrimer extracted from gamma-irradiated gelatin paste; type: biochemical; details: paste with SURGIFLO, extract about 0.25 mg/ml, fibrinogen 3 mg/ml, 37° C
Experimental: 2 ml of solution of Peptide Dendrimer No. 12 or 13 was mixed with SURGIFLO Haemostatic Matrix (a hydrated flowable gelatin matrix) to form a paste of each peptide. Each paste was sterilised by irradiation with ^60Co gamma rays at a dose of 30 kGy, and then stored at room temperature. Samples of the sterilised pastes were used for testing after storage for two and four weeks.
After storage, peptide dendrimers were extracted from each paste using 10 mM HEPES buffer. 30 μL of each extract (with a peptide concentration of about 0.25 mg/ml) was added to 100 μL of human fibrinogen at 3 mg/ml, and the ability of each dendrimer to polymerise fibrinogen (the ‘clotting’ activity) at 37° C. was determined using a Sigma Amelung KC4 Delta coagulation analyser. The polymerisation activity of non-irradiated control samples was also determined.

Substance: GPRPG
- binding preference for hole 'a' / hole 'b' of fibrinogen (fibrinogen [1]): binds to hole ‘a’ and hole ‘b’ of fibrinogen, but with some preference for hole ‘a’

Substance: GPRP
- binding preference for hole 'a' / hole 'b' of fibrinogen (fibrinogen [1]): binds strongly and preferentially to the ‘a’ hole of fibrinogen

Substance: Peptide Dendrimer No. 12 (peptide GPRPG; chain KKKKK)
- ability to copolymerise with fibrinogen ([2]; dendrimer 0.005-2 mg/ml, fibrinogen 3 mg/ml): able to copolymerise with fibrinogen almost instantaneously
- clotting ([2]; dendrimer in the range ~0.02-0.5 mg/ml): almost instantaneous clotting
- ability to polymerise fibrinogen in human plasma [3]: able to polymerise fibrinogen in human plasma
- clotting time [3]: less than one second
- Clotting activity (seconds), Storage for 2 weeks post irradiation (fibrinogen [4]; 30 kGy gamma, 2 weeks room temperature): 1 s
- Clotting activity (seconds), Storage for 4 weeks post irradiation (fibrinogen [4]; 30 kGy gamma, 4 weeks room temperature): 1 s
- Clotting activity (seconds), Non-irradiated control (fibrinogen [4]; not irradiated): 1 s

Substance: GPRPFPA
- binding preference for hole 'a' / hole 'b' of fibrinogen (fibrinogen [1]): binds with high preference for hole ‘a’ in fibrinogen

Substance: GHRPY
- binding preference for hole 'a' / hole 'b' of fibrinogen (fibrinogen [1]): binds strongly and preferentially to the ‘b’ hole of fibrinogen
